Test [1] addresses human melanin-concentrating hormone receptor (MCH-1R) (human) (UniProt Q99705). Put plainly: scintillation proximity assay, HEK293-AEQ17/MCH-1R membranes; non-specific binding defined with 500 nM unlabeled MCH. A general note: SPA uses beads or plates that emit light when radiolabelled molecules are held near them.
A further test relates to MCH-1R(Δ316/EGFP). Nature of the test: Functional activation, aequorin assay (mobilization of intracellular calcium). It is filed as cell-based, human. The settings on record: FIG. 6; transiently transfected HEK293-AEQ17 cells, aequorin bioluminescence. How it is done: Functional activation of MCH-1R […] was measured in an aequorin assay. Proteins were introduced in the stable reporter cell line HEK293-AEQ17 in which mobilization of intracellular calcium can be detected by bioluminescence of jelly fish aequorin upon calcium binding.
Bioluminescence was detected using a Luminoskan RT luminometer (Labsystems Inc., Gaithersburg, Md.). HEK293-AEQ17 cells were maintained in D-MEM/high glucose medium (Life Technologies, Rockville, Md.) supplemented with 10% fetal bovine serum, […] G418, 25 mM Hepes at 37° C. with 5% CO2 in a humidified atmosphere. […]
The cells were harvested, washed once in ECB medium and resuspended to 500,000 cells/ml. […] of cell suspension (corresponding to 5×10^4 cells) was then injected into a 96-well test plate, and the integrated light emission was recorded over 30 seconds, in 0.5 second units. 20 μL of lysis buffer (0.1% final Triton X-100 concentration) was then injected and the integrated light emission recorded over 10 seconds, in 0.5 second units. The “fractional response” values for each well were calculated by taking the ratio of the integrated response to the initial challenge to the total integrated luminescence including the Triton X-100 lysis response.
(In general: A change in cytosolic calcium serves as a functional read-out for many receptors and channels.)

Bridge positions count the residues as written; N and C are the ends. Ends that are not written are not given here.

human melanin-concentrating hormone receptor (MCH-1R) (human), sequence (Q99705 whole entry): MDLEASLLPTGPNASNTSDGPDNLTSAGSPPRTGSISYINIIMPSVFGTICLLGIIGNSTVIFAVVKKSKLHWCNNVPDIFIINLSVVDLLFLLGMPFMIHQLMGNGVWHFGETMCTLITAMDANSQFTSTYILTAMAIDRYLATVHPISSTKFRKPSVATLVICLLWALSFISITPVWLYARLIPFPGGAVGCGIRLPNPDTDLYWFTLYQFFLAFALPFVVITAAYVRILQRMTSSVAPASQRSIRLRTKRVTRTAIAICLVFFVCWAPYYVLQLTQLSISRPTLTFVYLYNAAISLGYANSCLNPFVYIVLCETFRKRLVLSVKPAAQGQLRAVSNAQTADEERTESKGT

For “[125I]Phe13Tyr19-MCH (from UniProt P20382 147-165) (peptide)”, the specific binding window in test [1] is > 6 x (fold).

Consider “Melanin-concentrating hormone (DFDMLRCMLGRVYRPCWQV; disulfide 7-16 (inferred); ends not checked) [MCH, cyclic 19-amino acid neuropeptide, MCH-1R agonist]”, for which, in the test with MCH-1R(Δ316/EGFP), the “functional activation of MCH-1R(Δ316/EGFP) (mobilization of intracellular calcium)” value is “lack of functional activation”.

The values are drawn from patent publication US20050069883A1 (priority 2001, published 2005).
